Laboratory results: patent EP4789680A1, “NOVEL PACE4 INHIBITOR AND USE THEREOF IN ANTI-OSTEOARTHRITIS” (Inflamax Pharmaceuticals Limited, priority 2023, dated 2025)
*1 amine or outer side, *2 acyl side, *3 side chain or, on linkers, in order; H or OH if unused. Where no end group is shown, it is not given here. [ ]: non-standard residue; d: D form. Ala(piperidin-4-yl) = O=C([C@H](CC1CCN([*:3])CC1)N[*:1])[*:2]; Phe(4-guanidino) = N=C(N)Nc1ccc(C[C@H](N)C(=O)O)cc1; Phe(4-CF3) = N[C@@H](Cc1ccc(C(F)(F)F)cc1)C(=O)O

T1: PACE4 (UniProt P29122 150-969, limits assumed)
T1 sequence (looked up): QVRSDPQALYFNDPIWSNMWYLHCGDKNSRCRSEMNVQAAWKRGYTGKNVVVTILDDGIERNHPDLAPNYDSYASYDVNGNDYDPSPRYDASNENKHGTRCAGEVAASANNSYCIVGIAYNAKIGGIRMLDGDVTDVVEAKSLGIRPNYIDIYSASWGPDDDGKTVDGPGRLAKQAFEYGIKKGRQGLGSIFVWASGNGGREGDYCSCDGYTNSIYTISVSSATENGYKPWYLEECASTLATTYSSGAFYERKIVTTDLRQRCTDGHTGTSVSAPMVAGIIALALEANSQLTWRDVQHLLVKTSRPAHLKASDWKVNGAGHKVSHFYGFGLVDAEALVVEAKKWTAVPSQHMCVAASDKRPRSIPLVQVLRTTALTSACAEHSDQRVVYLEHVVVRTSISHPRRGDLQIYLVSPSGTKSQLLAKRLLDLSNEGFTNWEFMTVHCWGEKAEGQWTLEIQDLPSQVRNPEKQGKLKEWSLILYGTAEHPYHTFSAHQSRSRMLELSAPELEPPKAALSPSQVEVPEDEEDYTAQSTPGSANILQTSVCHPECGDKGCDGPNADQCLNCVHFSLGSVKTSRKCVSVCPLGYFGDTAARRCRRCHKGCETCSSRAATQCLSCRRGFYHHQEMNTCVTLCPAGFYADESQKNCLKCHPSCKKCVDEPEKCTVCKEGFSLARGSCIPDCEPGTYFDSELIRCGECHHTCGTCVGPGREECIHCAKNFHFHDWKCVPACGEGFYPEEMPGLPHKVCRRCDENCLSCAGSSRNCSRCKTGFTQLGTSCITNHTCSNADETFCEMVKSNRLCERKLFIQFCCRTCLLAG

B1: dP-dR-R-A(4-Pip)-K-R-dT-NH2 (peptide)
peptide: [dP][dR]R[Ala(piperidin-4-yl)]KR[dT]-NH2
modifications: N-terminus assumed
SMILES: C[C@H](O)[C@@H](NC(=O)[C@H](CCCNC(=N)N)NC(=O)[C@H](CCCCN)NC(=O)[C@H](CC1CCNCC1)NC(=O)[C@H](CCCNC(=N)N)NC(=O)[C@@H](CCCNC(=N)N)NC(=O)[C@H]1CCCN1)C(N)=O
B2: Ac-dR-R-F(4-Guan)-K-R-dT-NH2 (peptide)
peptide: Ac-[dR]R[Phe(4-guanidino)]KR[dT]-NH2
SMILES: CC(=O)N[C@H](CCCNC(=N)N)C(=O)N[C@@H](CCCNC(=N)N)C(=O)N[C@@H](Cc1ccc(NC(=N)N)cc1)C(=O)N[C@@H](CCCCN)C(=O)N[C@@H](CCCNC(=N)N)C(=O)N[C@@H](C(N)=O)[C@H](C)O
B3: Ac-R-R-F(4-Guan)-K-R-dT-NH2 (peptide)
peptide: Ac-RR[Phe(4-guanidino)]KR[dT]-NH2
SMILES: CC(=O)N[C@@H](CCCNC(=N)N)C(=O)N[C@@H](CCCNC(=N)N)C(=O)N[C@@H](Cc1ccc(NC(=N)N)cc1)C(=O)N[C@@H](CCCCN)C(=O)N[C@@H](CCCNC(=N)N)C(=O)N[C@@H](C(N)=O)[C@H](C)O
B4: Ac-R-R-F-K-R-dT-NH2 (peptide)
peptide: Ac-RRFKR[dT]-NH2
SMILES: CC(=O)N[C@@H](CCCNC(=N)N)C(=O)N[C@@H](CCCNC(=N)N)C(=O)N[C@@H](Cc1ccccc1)C(=O)N[C@@H](CCCCN)C(=O)N[C@@H](CCCNC(=N)N)C(=O)N[C@@H](C(N)=O)[C@H](C)O
B5: dP-dR-R-F(4-CF3)-K-R-dT-NH2 (peptide)
peptide: [dP][dR]R[Phe(4-CF3)]KR[dT]-NH2
modifications: N-terminus assumed
SMILES: C[C@H](O)[C@@H](NC(=O)[C@H](CCCNC(=N)N)NC(=O)[C@H](CCCCN)NC(=O)[C@H](Cc1ccc(C(F)(F)F)cc1)NC(=O)[C@H](CCCNC(=N)N)NC(=O)[C@@H](CCCNC(=N)N)NC(=O)[C@H]1CCCN1)C(N)=O
B6: Ac-R-F-K-R-dT-NH2 (peptide)
peptide: Ac-RFKR[dT]-NH2
SMILES: CC(=O)N[C@@H](CCCNC(=N)N)C(=O)N[C@@H](Cc1ccccc1)C(=O)N[C@@H](CCCCN)C(=O)N[C@@H](CCCNC(=N)N)C(=O)N[C@@H](C(N)=O)[C@H](C)O
B7: Ac-R-R-F(4-CF3)-K-R-dT-NH2 (peptide)
peptide: Ac-RR[Phe(4-CF3)]KR[dT]-NH2
SMILES: CC(=O)N[C@@H](CCCNC(=N)N)C(=O)N[C@@H](CCCNC(=N)N)C(=O)N[C@@H](Cc1ccc(C(F)(F)F)cc1)C(=O)N[C@@H](CCCCN)C(=O)N[C@@H](CCCNC(=N)N)C(=O)N[C@@H](C(N)=O)[C@H](C)O
B8: Ac-R-R-A(4-Pip)-K-R-dT-NH2 (peptide)
peptide: Ac-RR[Ala(piperidin-4-yl)]KR[dT]-NH2
SMILES: CC(=O)N[C@@H](CCCNC(=N)N)C(=O)N[C@@H](CCCNC(=N)N)C(=O)N[C@@H](CC1CCNCC1)C(=O)N[C@@H](CCCCN)C(=O)N[C@@H](CCCNC(=N)N)C(=O)N[C@@H](C(N)=O)[C@H](C)O
B9: Ac-R-F(4-Guan)-K-R-dT-NH2 (peptide)
peptide: Ac-R[Phe(4-guanidino)]KR[dT]-NH2
SMILES: CC(=O)N[C@@H](CCCNC(=N)N)C(=O)N[C@@H](Cc1ccc(NC(=N)N)cc1)C(=O)N[C@@H](CCCCN)C(=O)N[C@@H](CCCNC(=N)N)C(=O)N[C@@H](C(N)=O)[C@H](C)O
B10: P-dR-R-F(4-CF3)-K-R-dT-NH2 (peptide)
peptide: P[dR]R[Phe(4-CF3)]KR[dT]-NH2
modifications: N-terminus assumed
SMILES: C[C@H](O)[C@@H](NC(=O)[C@H](CCCNC(=N)N)NC(=O)[C@H](CCCCN)NC(=O)[C@H](Cc1ccc(C(F)(F)F)cc1)NC(=O)[C@H](CCCNC(=N)N)NC(=O)[C@@H](CCCNC(=N)N)NC(=O)[C@@H]1CCCN1)C(N)=O
B11: Ac-dR-R-F-K-R-dT-NH2 (peptide)
peptide: Ac-[dR]RFKR[dT]-NH2
SMILES: CC(=O)N[C@H](CCCNC(=N)N)C(=O)N[C@@H](CCCNC(=N)N)C(=O)N[C@@H](Cc1ccccc1)C(=O)N[C@@H](CCCCN)C(=O)N[C@@H](CCCNC(=N)N)C(=O)N[C@@H](C(N)=O)[C@H](C)O
B12: Ac-R-A(4-Pip)-K-R-dT-NH2 (peptide)
peptide: Ac-R[Ala(piperidin-4-yl)]KR[dT]-NH2
SMILES: CC(=O)N[C@@H](CCCNC(=N)N)C(=O)N[C@@H](CC1CCNCC1)C(=O)N[C@@H](CCCCN)C(=O)N[C@@H](CCCNC(=N)N)C(=O)N[C@@H](C(N)=O)[C@H](C)O
B13: Ac-dR-R-A(4-Pip)-K-R-dT-NH2 (peptide)
peptide: Ac-[dR]R[Ala(piperidin-4-yl)]KR[dT]-NH2
SMILES: CC(=O)N[C@H](CCCNC(=N)N)C(=O)N[C@@H](CCCNC(=N)N)C(=O)N[C@@H](CC1CCNCC1)C(=O)N[C@@H](CCCCN)C(=O)N[C@@H](CCCNC(=N)N)C(=O)N[C@@H](C(N)=O)[C@H](C)O
B14: Ac-R-F(4-Guan)-K-R-T-NH2 (peptide)
peptide: Ac-R[Phe(4-guanidino)]KRT-NH2
SMILES: CC(=O)N[C@@H](CCCNC(=N)N)C(=O)N[C@@H](Cc1ccc(NC(=N)N)cc1)C(=O)N[C@@H](CCCCN)C(=O)N[C@@H](CCCNC(=N)N)C(=O)N[C@H](C(N)=O)[C@@H](C)O
B15: dP-dR-R-F(4-Guan)-K-R-dT-NH2 (peptide)
peptide: [dP][dR]R[Phe(4-guanidino)]KR[dT]-NH2
modifications: N-terminus assumed
SMILES: C[C@H](O)[C@@H](NC(=O)[C@H](CCCNC(=N)N)NC(=O)[C@H](CCCCN)NC(=O)[C@H](Cc1ccc(NC(=N)N)cc1)NC(=O)[C@H](CCCNC(=N)N)NC(=O)[C@@H](CCCNC(=N)N)NC(=O)[C@H]1CCCN1)C(N)=O
B16: P-dR-R-F(4-Guan)-K-R-dT-NH2 (peptide)
peptide: P[dR]R[Phe(4-guanidino)]KR[dT]-NH2
modifications: N-terminus assumed
SMILES: C[C@H](O)[C@@H](NC(=O)[C@H](CCCNC(=N)N)NC(=O)[C@H](CCCCN)NC(=O)[C@H](Cc1ccc(NC(=N)N)cc1)NC(=O)[C@H](CCCNC(=N)N)NC(=O)[C@@H](CCCNC(=N)N)NC(=O)[C@@H]1CCCN1)C(N)=O
B17: Ac-dR-R-F(4-CF3)-K-R-dT-NH2 (peptide)
peptide: Ac-[dR]R[Phe(4-CF3)]KR[dT]-NH2
SMILES: CC(=O)N[C@H](CCCNC(=N)N)C(=O)N[C@@H](CCCNC(=N)N)C(=O)N[C@@H](Cc1ccc(C(F)(F)F)cc1)C(=O)N[C@@H](CCCCN)C(=O)N[C@@H](CCCNC(=N)N)C(=O)N[C@@H](C(N)=O)[C@H](C)O
B18: Ac-R-A(4-Pip)-K-R-T-NH2 (peptide)
peptide: Ac-R[Ala(piperidin-4-yl)]KRT-NH2
SMILES: CC(=O)N[C@@H](CCCNC(=N)N)C(=O)N[C@@H](CC1CCNCC1)C(=O)N[C@@H](CCCCN)C(=O)N[C@@H](CCCNC(=N)N)C(=O)N[C@H](C(N)=O)[C@@H](C)O
B19: P-dR-R-A(4-Pip)-K-R-dT-NH2 (peptide)
peptide: P[dR]R[Ala(piperidin-4-yl)]KR[dT]-NH2
modifications: N-terminus assumed
SMILES: C[C@H](O)[C@@H](NC(=O)[C@H](CCCNC(=N)N)NC(=O)[C@H](CCCCN)NC(=O)[C@H](CC1CCNCC1)NC(=O)[C@H](CCCNC(=N)N)NC(=O)[C@@H](CCCNC(=N)N)NC(=O)[C@@H]1CCCN1)C(N)=O

Molecular target: T1, PACE4
Assay: cell-based or functional assay

Row | Binder | IC50 (µM), PACE4 enzyme inhibition, fluorogenic substrate pyroGlu-Arg-Val-Lys-Arg-methyl-coumaryl-7-amide
1 | B1 | 0.08 µM
2 | B2 | 0.015 µM
3 | B3 | 0.018 µM
4 | B4 | 0.46 µM
5 | B5 | 0.02 µM
6 | B6 | 5 µM
7 | B7 | 0.09 µM
8 | B8 | 0.09 µM
9 | B9 | 0.021 µM
10 | B10 | 0.02 µM
11 | B11 | 0.19 µM
12 | B12 | 0.1 µM
13 | B13 | 0.12 µM
14 | B14 | 0.023 µM
15 | B15 | 0.034 µM
16 | B16 | 0.025 µM
17 | Ac-RFKR-NH2 [Ac-R-F-K-R-NH2] | 12.7 µM
18 | Ac-RFKRT-NH2 [Ac-R-F-K-R-T-NH2] | 2 µM
19 | B17 | 0.04 µM
20 | B18 | 0.3 µM
21 | B19 | 0.07 µM
